In paper doi:10.1101/2022.04.02.486822 (bioRxiv, 2022):

Target: the molecule itself
Assay: crystal structure

B1: E. coli glyoxylate reductase/hydroxypyruvate reductase A (EcGhrA), wild type, His6-tagged (enzyme, UniProt P75913 1-312, looked up)
chain: MDIIFYHPTFDTQWWIEALRKAIPQARVRAWKSGDNDSADYALVWHPPVEMLAGRDLKAVFALGAGVDSILSKLQAHPEMLNPSVPLFRLEDTGMGEQMQEYAVSQVLHWFRRFDDYRIQQNSSHWQPLPEYHREDFTIGILGAGVLGSKVAQSLQTWRFPLRCWSRTRKSWPGVQSFAGREELSAFLSQCRVLINLLPNTPETVGIINQQLLEKLPDGAYLLNLARGVHVVEDDLLAALDSGKVKGAMLDVFNREPLPPESPLWQHPRVTITPHVAAITRPAEAVEYISRTIAQLEKGERVCGQVDRARGY
B1: binds.
